Laboratory results reported in article PMC7188400 (mAbs, 2020).

How the values were obtained:
[1] = target: human BDNF (Sino Biological Inc., Catalog 50240-MNAS) (Homo sapiens, UniProt P23560); assay: SPR
[2] = target: human BDNF (KinExA; supplier not stated) (Homo sapiens, UniProt P23560); assay: kinetic exclusion assay
Chain of human BDNF (KinExA; supplier not stated) (P23560 129-247): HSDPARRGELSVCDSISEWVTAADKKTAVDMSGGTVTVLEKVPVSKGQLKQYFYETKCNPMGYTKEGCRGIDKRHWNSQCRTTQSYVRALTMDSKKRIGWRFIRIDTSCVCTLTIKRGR

Chain of human BDNF (Sino Biological Inc., Catalog 50240-MNAS) (P23560 129-247): as above

B1: R3bH01, parental chimeric chicken-human IgG1 anti-BDNF antibody (antibody, V domains shown)
VH: AVTLDESGGGLQTPGGGLSLVCKASGFDFSSYDMHWVRQAPGKGLEWVAGIDDGGSDTYYGSAVKGRATISRDNGQSTVRLQLNNLRAEDTGTYYCAKSSYDISWNGHVENIDAWGHGTEVIVSS
VL: ALTQPTSVSTNLGGTVEITCSGAGSGYGYGWFQQKSPGSAPVTVIYSNDKRPSDIPSRFSGSKSGSTGTLTITGVQAEDEAVYFCGTYDSTDAGYAIFGAGTTLTVL
[1]
  Kd: 34400 ± 5430 pM

B2: B30, humanized and affinity-optimized anti-BDNF IgG1 (antibody, V domains shown)
VH: not shown
VL: SSELTQPPAVSVALGQTVRITCSGAGSGYGYGWYQQKPGQAPVTVIYSNDKRPSGIPDRFSGSSSGNTASLTITGAQAEDEADYYCGTYVSAYYGYAIFGGGTKLTVL
[1]
  Kd: 120 ± 10 pM

B3: B30 Fab (Fab, V domains shown)
VH: not shown
VL: SSELTQPPAVSVALGQTVRITCSGAGSGYGYGWYQQKPGQAPVTVIYSNDKRPSGIPDRFSGSSSGNTASLTITGAQAEDEADYYCGTYVSAYYGYAIFGGGTKLTVL
[2]
  Kd: 1.06 pM
